Measured values: patent US20150307555A1

What was measured:
[1] = biological target: human V2 receptor (human) (UniProt P30518); test: cell-based or functional assay
[2] = biological target: human V1b receptor (human) (UniProt P47901); test: cell-based or functional assay
Chain of human V1b receptor (human) (P47901 whole entry): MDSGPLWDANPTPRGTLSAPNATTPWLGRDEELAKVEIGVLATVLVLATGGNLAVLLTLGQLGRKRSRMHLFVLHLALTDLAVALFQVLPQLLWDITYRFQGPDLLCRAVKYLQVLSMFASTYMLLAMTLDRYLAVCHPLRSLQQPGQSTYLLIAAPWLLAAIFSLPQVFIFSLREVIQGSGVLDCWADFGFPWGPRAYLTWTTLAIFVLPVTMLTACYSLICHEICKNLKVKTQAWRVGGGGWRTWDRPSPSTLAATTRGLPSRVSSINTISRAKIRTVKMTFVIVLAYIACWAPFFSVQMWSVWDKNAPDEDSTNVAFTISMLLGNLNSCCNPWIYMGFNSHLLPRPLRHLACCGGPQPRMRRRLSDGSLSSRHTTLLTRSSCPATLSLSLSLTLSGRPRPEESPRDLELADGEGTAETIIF

Row | Substance | EC50 hV2-R [1] [nM] | % Efficacy hV1b-R [2] [%] | % Efficacy hV2-R [1] [%]
1 | Arginine Vasopressin (peptide; unit assumed) | 0.04 |  | 
2 | Desmopressin, [1-deamino, 8-D-arginine]-vasopressin (peptide) |  | 100 | 100
3 | [Val4]dDAVP (peptide) |  |  | 89
4 | [Val4]dDAVP (peptide; unit assumed) | 0.05 |  | 
